Values of other authors in patent publication US20250320497A1, “COMPOSITIONS AND METHODS FOR TREATING HEPATITIS B VIRUS (HBV) INFECTION AND HBV-ASSOCIATED DISEASES” (priority 2022, published 2025).

Tested on: chronic HBV infection
Conditions: Phase 1, patients with chronic HBV infection

B1: GC 1102: fully human anti-HBsAg mAb in development for chronic HBV infection (antibody, chains of the INN, looked up, V domains shown)
VH: EVQLVESGGGLVKPGGSLRLSCSASGFSLTKYKMTWVRQAPGKGLEWVSSISSTSRDIDYADSVKGRFTISRDNAKNSLFLQMSSLRVDDTAVYYCTRDGWLWGWDVRSNYYYNALDVWGQGTTVTVSS
VL: DIVVTQSPSSLSASVGDRVTITCRASQGIYNSIAWYQQKPGKAPKLLLYSTSTLLSGVPSRFSGSGSGTDYTLTITNLQPEDFATYYCQQYFVTPETFGQGTKLEIK
  lowering of HBsAg: 2-3 log10 IU/mL
  tolerability: well tolerated
